The results in this text go back to patent US20250011738A1, “HEAT TOLERANT ALKALINE PHOSPHATASE” (BiomEdit, LLC, priority 2021, published 2025).

One may read the Km as the substrate concentration at which the rate is half of its maximum. As usually defined, the kcat is the number of substrate molecules converted per active site and unit of time at saturation.

Format in all cases: biochemical, Paenibacillus lentus
Substrate in data set [1]: Nc1ncnc2c1ncn2[C@@H]1O[C@H](COP(=O)(O)OP(=O)(O)OP(=O)(O)O)[C@@H](O)[C@H]1O
Description: Phosphate assay (Malachite green) with UDP, ATP and dAMP, AP1 ("Native"). The protocol:
(§1) FIG. 9 depicts (A)Vmax (IU/mg) and (B) KM (μM) activity of AP1 (designated “Native”) and APHT (designated “HT”) on UDP, ATP and dAMP. Assays were performed at 40° C. with p substrate concentration 0-5 mM in Tris buffer pH 8. The enzyme concentration was 2 μg/mL.
(§2) FIG. 10 depicts (A)Vmax (IU/mg) and (B) KM (μM) activity of AP1 (designated “Native”) and APHT (designated “HT”) with UDP, ATP and dAMP. Assays were performed at 50° C. with p substrate concentration 0-5 mM in DEA buffer pH 10. The enzyme concentration was 2 μg/mL.
(§3) Enzymes, including lysozyme and alkaline phosphatase, are recognized as disruptors of bacterial debris and inflammation. These enzymes reduce inflammation, including by lysing the peptidoglycans and LPS of bacteria, thus deactivating them and thereby bypassing the inflammatory response. An alkaline phosphatase was initially identified and modified from Paenibacillus lentus bacteria and expressed for application and use as a farm animal feed additive. This modified alkaline phosphatase is characterized by having a serine (S) replacement for an aspartic acid (D) in the native bacterial alkaline phosphatase protein sequence and is designated herein as AP1. […] The AP1 alkaline phosphate is described including in U.S. Pat. No. 9,326,535 issued May 3, 2016. The sequence of AP1 is as follows (the serine is in bold and underlined) (SEQ ID NO:4):
(§4) 5. Phosphate Assay with Biological Substrates UDP, ATP, and dAMP (Native and HT)
(§5) Phosphatase activity with UDP, ATP and dAMP was assessed by measuring the release of […] with the Malachite green reagent (Sigma) at 40° C. and 50° C. Assay consisted of nucleotide phosphate in the concentration range 0-5 mM, 2 μg/mL AP in a final volume of 100 μL. The reaction was initiated in a 96-well microplate with the addition of enzyme and incubated for 5 min. After this time, 10 μL of reaction were mixed with 90 μL of water 25 μL of Malachite green solution. The microplate was shaken for 20 min at 25° C. and absorption was recorded at 620 nm. As standard pyrophosphate solution in water was used in the concentration range of 0-40 μM. Each experiment was done by triplicated at least.

Substrate in data set [2]: Nc1ncnc2c1ncn2[C@H]1C[C@H](O)[C@@H](COP(=O)(O)O)O1
The description is as above. As to the method: as §1, §2, §3, §4, §5

Substrate in data set [3]: O=c1ccn([C@@H]2O[C@H](COP(=O)(O)OP(=O)(O)O)[C@@H](O)[C@H]2O)c(=O)[nH]1
Described as above. The protocol: as §1, §2, §3, §4, §5

Substrate in data set [4]: Nc1ncnc2c1ncn2[C@@H]1O[C@H](COP(=O)(O)OP(=O)(O)OP(=O)(O)O)[C@@H](O)[C@H]1O
Description: Phosphate assay (Malachite green) with UDP, ATP and dAMP, APHT ("HT"). As to the method: as §1, §2
(§6) To further improve the thermal stability, a set of synthetic alkaline phosphatase genes where each amino acid was mutated to other possibilities one at a time was constructed and evaluated. Numerous single amino acids changes improving heat tolerance were combined and incorporated into a mutated alkaline phosphatase version yielding the alkaline phosphatase heat tolerant molecule designated APHT. […] (FIG. 4), and has a total of 16 amino acid changes from the original AP1 sequence (see FIG. 5A and B). In FIG. 5A, the AP1 with a serine mutation is designated as “AP Native” and is depicted in sequence with a leader sequence ASGFYVSGT (SEQ ID NO:13). The AP1 with leader sequence ASGFYVSGT is provided in SEQ ID NO:14). The APHT polypeptide with leader sequence ASGFYVSGT is provided in SEQ ID NO:15). In FIG. 5B, the AP1 with a serine mutation and without any leader sequence or leader peptide amino acids (SEQ ID NO:4) is aligned and compared with the APHT without any leader sequence or leader peptide amino acids (SEQ ID NO:1). The 16 amino acid changes in APHT are evident. The APHT amino acid sequence (excluding and without any leader sequence and starting with amino acids ESSN) is 97% identical to the sequence of AP1 (excluding and without any leader sequence and starting with amino acids ESSN).
(§7) The APHT sequence (SEQ ID NO: 1) is provided below with the amino acid mutations versus the AP1 sequence underlined and in bold.
as §4, §5

Substrate in data set [5]: Nc1ncnc2c1ncn2[C@H]1C[C@H](O)[C@@H](COP(=O)(O)O)O1
Described as above. As to the method: as §1, §2, §6, §7, §4, §5

Substrate in data set [6]: O=c1ccn([C@@H]2O[C@H](COP(=O)(O)OP(=O)(O)O)[C@@H](O)[C@H]2O)c(=O)[nH]1
The data set is described as above. As to the method:
as §1, §2, §6, §7, §4, §5

Substrate in data set [7]: Nc1ncnc2c1ncn2[C@@H]1O[C@H](COP(=O)(O)OP(=O)(O)OP(=O)(O)O)[C@@H](O)[C@H]1O
The data set can be described thus: Dephosphorylation of substrates UDP, ATP and dAMP (Example 4, Table 11). As to conditions: other: Table 11; conditions not given. The protocol:
(§8) The inorganic phosphorous release (μM) from each of these sources by the heat tolerant HTAP was determined and is shown in FIG. 12. […] The inorganic phosphorous release (μM) was also assessed from the metabolically relevant compounds phosphocholine, phosphocreatine and phytic acid and compared with native AP. The heat tolerant HTAP was comparably active vs native AP in Pi release from each of compounds phosphocholine, phosphocreatine and phytic acid (data not shown).
(§9) Dephosphorylation of substrates UDP, ATP and dAMP was also assessed and determined.

Substrate in data set [8]: Nc1ncnc2c1ncn2[C@H]1C[C@H](O)[C@@H](COP(=O)(O)O)O1
Described as above. As to conditions: other: Table 11; conditions not given. The protocol:
as §8, §9

Substrate in data set [9]: O=c1ccn([C@@H]2O[C@H](COP(=O)(O)OP(=O)(O)O)[C@@H](O)[C@H]2O)c(=O)[nH]1
Described as above. As to conditions: other: Table 11; conditions not given. The protocol: as §8, §9

Where [10] appears, read: other: 40° C., Tris buffer pH 8, enzyme 2 μg/mL, pH 8.0, 40.0 °C.
Where [11] appears, read: other: 50° C., DEA buffer pH 10, enzyme 2 μg/mL, pH 10.0, 50.0 °C.

B1: Paenibacillus lentus alkaline phosphatase AP1 (designated "Native"), serine (S) replacement for an aspartic acid (D), SEQ ID NO: 4 (Paenibacillus lentus; D102S) (protein)
chain: ESSNGQSKNLIVLIGDGMGPAQVSAARYFQQHKNNINSLNLDPYYVGQATTYADRGEDGGHIVSGIVTSSASAGTAFATGNKTYNAAISVSNEDVSRPFASVLEAAELSGKSTGLVTTARITHATPAVYASHVRSRDNENAIAFQYLDSGIDVLLGGGESFFVTKEEKGKRNDKNLLPEFEAKGYKVVKTGQSLKSLSAKDAKVLGLFGGSHIAYVPDRSDETPSLAEMTSKALEILSTNENGFAIMIEGGRIDHAGHANDFPTMVQEALDFDEAFKVAIDFAKKDGNTSVVVTADHETGGLSLSRDNIYELNVDLWNKQKNSSESLVSALNEAKTIADVKKIVSDNTWITDLTNEEAQYILDGDGSSYKREGGYNAVISKRLLVGWSGHGHSAVDVGVWAYGPIADKVKGQIDNTRIATASAEVLGVDLKKATADLQSKYLYPKFKINRNKEVLFPAKPLAEALGGKYQAANGTATISGMSGTITVDLNAKKAKLSGNSSSITIDVDNDVLYLPLTAFSQITGQTLKWDALSERIMLK
In the case of B1, the Km was determined as 110 µM in data set [1] (setting [10]); 210 µM in data set [1] (setting [11]); 113 µM in [2] (setting [10]); 199 µM in data set [2] (setting [11]); 74 µM in data set [3] (setting [10]); 83 µM in [3] (setting [11]). Also, the Vmax was 336 IU/mg in [1] (setting [10]); 578 IU/mg in data set [1] (setting [11]); 356 IU/mg in data set [2] (setting [10]); 730 IU/mg in data set [2] (setting [11]); 447 IU/mg in data set [3] (setting [10]); 608 IU/mg in [3] (setting [11]).

B2: Paenibacillus lentus alkaline phosphatase AP1 heat tolerant mutant APHT (designated "HT"), 16 amino acid changes from AP1, SEQ ID NO: 1 (Paenibacillus lentus; … (protein)
chain: ESSNGQSKNLIVLIGDGMGPAQVSAARYFQQHINNINSLNLDPYYVGQATTYADRGEDGGHIVSGIITSSAAAGTAIATGNKTNNAAISVSNEDVSRPFASVHEAAELSGKSTGLVTTARITHATPAVYGSHVRNRDNENAIAFQYLDSGIDVLLGGGESFFVTNEEKGKRNDKNLLPEFEAKGYKVVKNGQSLKSLSAKDAKVLGLFGGSHIPYVPDRSDETPSLAEMTSKALEILSTNENGFAIMIEGGRIDHAAHANDFPTMVQEMLAFDEAFKVAIDFAKKDGNTSVVVTADHETGGLSLGRDNIYELNVDLWNKQKNSSESLVSALNEAKTIADVKKIVSDNTWITDLTNEEAQYILDGDGSSYKREGGYNAVISKRLLVGWSGHGHSAVDVGVWAYGPIADKVKGQIDNTRIATASAEVLGVDLKKATADLQSKYLYPKFKINRNKEVLFPAKPLAEALGGKYQAANGTATISGMSGTITVDLNAKKAKLSGNSSEITIDVDNDVLYLPLTAFSQITGQTLKWDALSERIMLK
With B2, the Km in data set [4] (setting [10]) was determined as 97 µM; in data set [4] (setting [11]) it was 283 µM; in data set [5] (setting [10]) it was 165 µM; in data set [5] (setting [11]) it was 623 µM; in data set [6] (setting [10]), 93 µM; in [6] (setting [11]), 121 µM. Also, the Vmax in [4] (setting [10]) was determined as 358 IU/mg; in data set [4] (setting [11]) it was 380 IU/mg; in [5] (setting [10]), 262 IU/mg; in data set [5] (setting [11]) it was 472 IU/mg; in data set [6] (setting [10]), 631 IU/mg; in data set [6] (setting [11]), 521 IU/mg.

B3: Paenibacillus lentus alkaline phosphatase AP1 heat tolerant mutant APHT (HTAP), SEQ ID NO: 1 (Paenibacillus lentus; … (protein)
chain: B2 chain
Consider B3, for which the Km in data set [7] was found to be 399 ± 68 µM; in data set [8], 242 ± 27 µM; in data set [9] it was 166 ± 14 µM. Besides, the kcat in [7] worked out at 0.1 ± 0.00333 s⁻¹; in data set [8], 0.132 s⁻¹; in data set [9] it was 0.125 ± 0.00167 s⁻¹.
